For assay [1], the target named is T1, human prostate specific membrane antigen (PSMA) (human, UniProt Q04609 1-750).
T1 construct: whole, on cells; also called PMSA; FOLH1
Nature of the assay: flow cytometry on PSMA-expressing 22RV1 cells. On the procedure:
To this end, the cells were incubated with the indicated antibodies in 96 well plates for 30-45 min at 4° C. Upon incubation cells were washed and incubated with a secondary PE-goat-anti-human FC-γ specific fragment (Jackson ImmunoResearch). Cells were analyzed on a FACSCalibur (BD Biosciences).
(In general: In flow cytometry, cells or beads pass a laser one at a time.)

Assay [2] concerns the target T1, human prostate specific membrane …. Nature of the assay: in vivo biodistribution of radioisotope labeled CC-1 in mice with 22Rv1 (PSMA positive) or DU145 (PSMA negative) tumors.
Assay [3] has the same target. Nature of the assay: flow cytometry on PSMA-transfected Sp2/0 cells.
Description: Binding (FIG. 5A), lack of binding competition (FIG. 5B) and shift of the PSMA antigen upon antibody binding (FIG. 5C) was assessed by flow cytometry using PSMA-transfected Sp2/0 cells. To this end different α-PSMA antibodies were incubated with these cells in 96-well plates for 30-45 min at 4° C. Cells were then washed and incubated with a PE-conjugated goat-anti-mouse F(ab)₂ fragment (FIGS. 5A, 5C) (Jackson ImmunoResearch) or a PE-goat-anti-human FC-γ specific fragment (Jackson ImmunoResearch) (B). Cells were analyzed on a FACSCalibur (BD Biosciences). […] For the determination of antigen shift (FIG. 5C) PSMA expressing cells were incubated with the indicated antibodies at the beginning of the experiment and again after 24 hrs and before FACS analysis with a saturating amount (10 μg/ml) of the respective antibody. PSMA expression by untreated cells served as a reference (100% PSMA expression)

B1: PSMA (humanized h10B3) x CD3 (murine OKT3) bispecific Fabsc format antibody molecule (bispecific antibody, IgG1)
heavy: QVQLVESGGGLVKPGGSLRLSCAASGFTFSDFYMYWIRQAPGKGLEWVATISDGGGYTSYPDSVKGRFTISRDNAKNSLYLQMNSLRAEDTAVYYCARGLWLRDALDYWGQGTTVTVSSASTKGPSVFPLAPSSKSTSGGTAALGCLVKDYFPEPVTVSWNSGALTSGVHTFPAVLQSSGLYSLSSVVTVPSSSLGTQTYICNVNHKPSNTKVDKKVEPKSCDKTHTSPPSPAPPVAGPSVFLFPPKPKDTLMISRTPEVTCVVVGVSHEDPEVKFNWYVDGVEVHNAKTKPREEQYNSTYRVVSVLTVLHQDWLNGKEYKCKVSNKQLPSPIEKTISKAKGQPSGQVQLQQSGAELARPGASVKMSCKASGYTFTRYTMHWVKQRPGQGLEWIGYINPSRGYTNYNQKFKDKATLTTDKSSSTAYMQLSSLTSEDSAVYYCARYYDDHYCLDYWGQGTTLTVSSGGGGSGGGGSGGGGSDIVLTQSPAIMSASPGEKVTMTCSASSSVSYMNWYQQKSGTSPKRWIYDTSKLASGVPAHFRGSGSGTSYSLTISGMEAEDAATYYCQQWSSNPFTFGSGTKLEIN
light: EIVLTQSPATLSLSPGERATLSCSASSSISSNYLHWYQQKPGQAPRLLIYRTSNLASGIPARFSGSGSGTDYTLTISRLEPEDFAVYYCQQGSYIPFTFGQGTKLEIKRTVAAPSVFIFPPSDEQLKSGTASVVCLLNNFYPREAKVQWKVDNALQSGNSQESVTEQDSKDSTYSLSSTLTLSKADYEKHKVYACEVTHQGLSSPVTKSFNRGEC
notes: Heavy chain: h10B3 VH, IgG1 CH1, hinge, modified CH2, beginning of CH3, murine OKT3 scFv; also called h10B3xOKT3 Fabsc
As to B1, in assay [1], the binding result is reported as “binds”.

B2: PSMA (humanized h10B3) x CD3 (humanized hUCHT1) bispecific IgGsc format antibody molecule (bispecific antibody)
heavy: QVQLVESGGGLVKPGGSLRLSCAASGFTFSDFYMYWIRQAPGKGLEWVATISDGGGYTSYPDSVKGRFTISRDNAKNSLYLQMNSLRAEDTAVYYCARGLWLRDALDYWGQGTTVTVSSASTKGPSVFPLAPSSKSTSGGTAALGCLVKDYFPEPVTVSWNSGALTSGVHTFPAVLQSSGLYSLSSVVTVPSSSLGTQTYICNVNHKPSNTKVDKKVEPKSCDKTHTCPPCPAPPVAGPSVFLFPPKPKDTLMISRTPEVTCVVVGVSHEDPEVKFNWYVDGVEVHNAKTKPREEQYNSTYRVVSVLTVLHQDWLNGKEYKCKVSNKQLPSPIEKTISKAKGQPREPQVYTLPPSRDELTKNQVSLTCLVKGFYPSDIAVEWESNGQPENNYKTTPPVLDSDGSFFLYSKLTVDKSRWQQGNVFSCSVMHEALHNHYTQKSLSLSPGKSGDIQMTQSPSSLSASVGDRVTITCRASQDIRNYLNWYQQKPGKAPKLLIYYTSRLESGVPSRFSGSGSGTDYTLTISSLQPEDFATYYCQQGNTLPWTFGQGTKVEIKGGGGSGGGGSGGGGSEVQLVESGGGLVQPGGSLRLSCAASGYSFTGYTMNWVRQAPGKGLEWVALINPYKGVSTYNQKFKDRFTISVDKSKNTAYLQMNSLRAEDTAVYYCARSGYYGDSDWYFDVWGQGTLVTVSS
light: B1 light
notes: also called CC-1; PSMAxCD3 (h10B3xUCHT1)-IgGsc
For B2, in assay [2], the binding result is recorded as “binds”.

B3: murine antibody 10B3 (antibody, IgG2b, V domains shown)
VH: QVQLQESGGGLVKPGGSLKLSCAASGFTFSDFYMYWVRQTPEKRLEWVATISDGGGYTSYPDSVKGRFTISRDIAKNNLYLQMNSLKSEDTAKYYCARGLWLRDALDYWGQGTSVTVSS
VL: EIVLTQSPITMAAFLGERITITCSASSSISSNYLHWYQQKPGFSPKLLIYRTSNLASGVPIRFSGSGSGTSYSLTIGTMEAEDVATYYCQQGSYIPFTFGSGTKLEIKR
notes: Mouse hybridoma antibody, isotype IgG2b/kappa; also called mu 10B3; m10B3
As for B3, the binding result in assay [3] is “binds”.

(Values after patent publication US20250346669A1 (DEUTSCHES KREBSFORSCHUNGSZENTRUM STIFTUNG DES FFENTLICHEN …, published 2025).)
